Reference: article PMC12077149 (mBio, 2025)

Target: the molecule itself
Test: SEC; 24 mL Superdex-200, 150 mM NaCl, 50 mM Tris-HCl pH 8.0; MW estimated from a linear fit of MW standards

B1: 6×His-PqsE (wild type, P. aeruginosa) (enzyme)
chain: MLRLSAPGQLDDDLCLLGDVQVPVFLLRLGEASWALVEGGISRDAELVWADLCRWVADPSQVHYWLITHKHYDHCGLLPYLCPRLPNVQVLASERTCQAWKSESAVRVVERLNRQLLRAEQRLPEACAWDALPVRAVADGEWLELGPRHRLQVIEAHGHSDDHVVFYDVRRRRLFCGDALGEFDEAEGVWRPLVFDDMEAYLESLERLQRLPTLLQLIPGHGGLLRGRLAADGAESAYTECLRLCRRLLWRQSMGESLDELSEELHRAWGGQSVDFLPGELHLGSMRRMLEILSRQALPLD
notes: also called WT PqsE
- stoichiometry N: 2
